According to publication PMC10879569, “Major cardiovascular events under biologic psoriasis therapies: a 19-year real-world analysis of FAERS data” (Frontiers in Immunology, 2024):

Tests used:
[1] = tested on: active psoriatic arthritis; conditions: in vivo; cited from earlier work
[2] = tested on: psoriasis; conditions: in vivo; cited from earlier work
[3] = in vivo; cited from earlier work
[4] = tested on: patients with psoriasis indication; assay: FAERS disproportionality analysis (PRR and MGPS/EBGM) of MACEs reporting versus other psoriasis treatments; format: in vivo; conditions: compared among the biological classes
Description: FAERS collects […] of drug adverse events reports worldwide submitted by health professionals, consumers, and manufacturers. We chose the FAERS dataset as the data source for this study, and the analytical period was from January 2004 to December 2022. To enhance the reliability and validity of our results, only records submitted by professional health workers (e.g., physicians, pharmacists, and other health professionals) were included. To avoid potential confounders in causality assessments such as indication, the analysis was refined by retaining only reports with an expanded psoriasis indication. The raw FAERS data were cleaned, mapped, de-duplicated, and normalized by SQL server Data Mining.
The names are listed in Supplementary Table S1 .
Inclusion of reports was limited to only those cases where a biologic drug was identified as “the primary suspect” or”secondary suspect”. The control groups were comprised of the population who were indicated with psoriasis and receiving other psoriasis systemic therapies except biological agents. […]
This study is a case–non-case study. […] Disproportionality analysis (proportional reporting ratio, PRR) and MGPS were calculated to identify drug–event combinations with reporting rates higher than expected versus other drugs among patients with psoriasis indication. […]

[5] = parameters: method as in PMID 22011907, PMID 21862748; conditions: 2011; cited from earlier work

Substance: Adalimumab
- MACEs reported in the treatment group [1]: none

Substance: Ixekizumab
- MACEs events reported in the treatment group [2]: two

Substance: Risankizumab
- cardiac disorders as share of serious adverse events suspected of being caused by the drug [3]: 10.9%

Substance: Secukinumab
- MACEs reported in the treatment group [1]: two

Substance: Ustekinumab
- reporting rate for the four SMQs (myocardial infarction, stroke, cardiac fatality, death) [4]: highest reporting rate for all four SMQs

Substance: briakinumab
- fate of clinical trials after reports of serious cardiovascular adverse events (e.g., myocardial infarction, cardiac death) [5]: discontinued before marketing
